Measured values taken from paper PMC314469, “Protein Interaction Networks by Proteome Peptide Scanning” (PLoS Biology, 2004).

T1: Abp1 SH3 (ABP1_YEAST), P15891
T1 chain: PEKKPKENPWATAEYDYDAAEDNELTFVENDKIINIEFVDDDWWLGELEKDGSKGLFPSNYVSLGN

T2: Boi1 SH3 (BOI1_YEAST), P38041
T2 chain: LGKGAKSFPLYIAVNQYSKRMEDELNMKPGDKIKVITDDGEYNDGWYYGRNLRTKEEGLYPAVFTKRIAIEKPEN

T3: Boi2 SH3 (BOI2_YEAST), P39969
T3 chain: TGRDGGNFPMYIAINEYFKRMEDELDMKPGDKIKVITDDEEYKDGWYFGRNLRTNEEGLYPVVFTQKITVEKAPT

T4: Rvs167 SH3 (RV167_YEAST), P39743
T4 chain: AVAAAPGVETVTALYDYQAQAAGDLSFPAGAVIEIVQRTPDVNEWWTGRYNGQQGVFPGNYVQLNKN

T5: Yfr024 SH3 (LSB3_YEAST), P43603
T5 chain: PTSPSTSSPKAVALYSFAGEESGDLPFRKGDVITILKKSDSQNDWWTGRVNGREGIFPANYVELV

T6: Yhr016c SH3 (YSC84_YEAST), P32793
T6 chain: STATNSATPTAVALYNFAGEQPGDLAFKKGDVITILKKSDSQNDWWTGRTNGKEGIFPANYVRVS


Target: T1, Abp1 SH3 (ABP1_YEAST), P15891
Assay: SPOT array

Row | Binder | normalised SPOT signal, Boehringer light units (BLU); mean over the file's lines of this peptide
1 | NLLLLDADNFPIKP [YBR015C 261-274] | 169
2 | NLANGLMDTMPNKP [YBL084C 527-540] | 33.5
3 | NISIDYKPSRNKP [YKL126W 329-341] | 181
4 | NIQTIAMPLTTKP [YIL053W 16-28] | 111
5 | NLRGRIEFQPPLKP [YMR020W 267-280] | 235
6 | NKSKFTDMLDPEKP [YBR033W 382-395] | 160
7 | NKIKETLPREKKP [YMR255W 67-79] | 179
8 | NITVDYKPSKNKP [YMR104C 326-338] | 108
9 | NKPGWVVYPPPPKP [YML035C 220-233] | 180
10 | NLKIDSAPAYLKP [YKR011C 56-68] | 112
11 | NKRDKKKKKYPRKP [YDR485C 329-342] | 0
12 | NLSVRSKRLFPVRP [YAL040C 532-545] | 326
13 | NLVQSIDPNHSKP [YPL075W 339-351] | 169
14 | NMPFTLNQSHPFKP [YMR067C 315-328] | 140
15 | NKIETLDPALIRP [YDL007W 329-341] | 270
16 | NLVNIWKPDFERP [YJR140C 1438-1450] | 130
17 | NKLLPPHPFADKP [YGL143C 142-154] | 69.9
18 | NLTTTSKPSLPEKP [YPR171W 329-342] | 610
19 | NLGDIVTPTIQRP [YPL070W 456-468] | 45.9
20 | NKTFFLKPPIGRP [YBR182C 407-419] | 7480

Target: T2, Boi1 SH3 (BOI1_YEAST), P38041
Assay: SPOT array

Row | Binder | normalised SPOT signal, Boehringer light units (BLU); mean over the file's lines of this peptide
21 | NIPPNSPGKLQLNT [YNR017W 123-136] | 37.5
22 | NINPKQPPKTSGEK [YMR179W 373-386] | 24.7
23 | NAKPPLPIKAVTRP [YJL201W 440-453] | 2020
24 | NAPPYVPQRSKQPD [YBR114W 165-178] | 558
25 | NANPFLPNKHPVTQ [YGR076C 38-51] | 28.5
26 | NEVPTTPVRLILGQ [YOR195W 2-15] | 76.1
27 | NHIPPFPLRFSFAQ [YDR421W 532-545] | 119
28 | NEYPSKPPKVKFPA [YDL064W 66-79] | 66.8
29 | MVTPSKPPKKSVGF [YCL063W 147-160] | 149
30 | NDDPVIPYKLSKDT [YHR164C 1037-1050] | 92.9
31 | NEGPEYPTKIEKNQ [YKL101W 777-790] | 125

Target: T3, Boi2 SH3 (BOI2_YEAST), P39969
Assay: SPOT array

Row | Binder | normalised SPOT signal, Boehringer light units (BLU); mean over the file's lines of this peptide
32 | NIPPNSPGKLQLNT [YNR017W 123-136] | 93.6
33 | NINPKQPPKTSGEK [YMR179W 373-386] | 5.7
34 | NAKPPLPIKAVTRP [YJL201W 440-453] | 48.5
35 | NAPPYVPQRSKQPD [YBR114W 165-178] | 200
36 | NANPFLPNKHPVTQ [YGR076C 38-51] | 54
37 | NEVPTTPVRLILGQ [YOR195W 2-15] | 34.2
38 | NHIPPFPLRFSFAQ [YDR421W 532-545] | 35.5
39 | NEYPSKPPKVKFPA [YDL064W 66-79] | 54.4
40 | MVTPSKPPKKSVGF [YCL063W 147-160] | 85.1
41 | NDDPVIPYKLSKDT [YHR164C 1037-1050] | 44.3
42 | NEGPEYPTKIEKNQ [YKL101W 777-790] | 33.6

Target: T4, Rvs167 SH3 (RV167_YEAST), P39743
Assay: SPOT array

Row | Binder | normalised SPOT signal, Boehringer light units (BLU); mean over the file's lines of this peptide
43 | NIPPNSPGKLQLNT [YNR017W 123-136] | 0
44 | NINPKQPPKTSGEK [YMR179W 373-386] | 9.7
45 | NAKPPLPIKAVTRP [YJL201W 440-453] | 32.9
46 | NAPPYVPQRSKQPD [YBR114W 165-178] | 14300
47 | NANPFLPNKHPVTQ [YGR076C 38-51] | 81.9
48 | NEVPTTPVRLILGQ [YOR195W 2-15] | 48.6
49 | NHIPPFPLRFSFAQ [YDR421W 532-545] | 106
50 | NEYPSKPPKVKFPA [YDL064W 66-79] | 60.2
51 | MVTPSKPPKKSVGF [YCL063W 147-160] | 114
52 | NDDPVIPYKLSKDT [YHR164C 1037-1050] | 54.5
53 | NEGPEYPTKIEKNQ [YKL101W 777-790] | 20.8

Target: T5, Yfr024 SH3 (LSB3_YEAST), P43603
Assay: SPOT array

Row | Binder | normalised SPOT signal, Boehringer light units (BLU); mean over the file's lines of this peptide
54 | NIPPNSPGKLQLNT [YNR017W 123-136] | 84.4
55 | NINPKQPPKTSGEK [YMR179W 373-386] | 207
56 | NAKPPLPIKAVTRP [YJL201W 440-453] | 1870
57 | NAPPYVPQRSKQPD [YBR114W 165-178] | 11800
58 | NANPFLPNKHPVTQ [YGR076C 38-51] | 1430
59 | NEVPTTPVRLILGQ [YOR195W 2-15] | 2530
60 | NHIPPFPLRFSFAQ [YDR421W 532-545] | 6920
61 | NEYPSKPPKVKFPA [YDL064W 66-79] | 415
62 | MVTPSKPPKKSVGF [YCL063W 147-160] | 2650
63 | NDDPVIPYKLSKDT [YHR164C 1037-1050] | 198
64 | NEGPEYPTKIEKNQ [YKL101W 777-790] | 127

Target: T6, Yhr016c SH3 (YSC84_YEAST), P32793
Assay: SPOT array

Row | Binder | normalised SPOT signal, Boehringer light units (BLU); mean over the file's lines of this peptide
65 | NIPPNSPGKLQLNT [YNR017W 123-136] | 77.6
66 | NINPKQPPKTSGEK [YMR179W 373-386] | 225
67 | NAKPPLPIKAVTRP [YJL201W 440-453] | 288
68 | NAPPYVPQRSKQPD [YBR114W 165-178] | 8020
69 | NANPFLPNKHPVTQ [YGR076C 38-51] | 352
70 | NEVPTTPVRLILGQ [YOR195W 2-15] | 2090
71 | NHIPPFPLRFSFAQ [YDR421W 532-545] | 2580
72 | NEYPSKPPKVKFPA [YDL064W 66-79] | 54.8
73 | MVTPSKPPKKSVGF [YCL063W 147-160] | 361
74 | NDDPVIPYKLSKDT [YHR164C 1037-1050] | 233
75 | NEGPEYPTKIEKNQ [YKL101W 777-790] | 109
